# Data from the nanobody polyreactivity screen of Harvey et al. (2022).
# Assay: yeast display, Sf9 membrane polyspecificity reagent, FACS + sequencing; frameworks hold sequencing errors
# How it was run: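 In a synthetic yeast display library (Saccharomyces cerevisiae BJ5465), nanobody expression was induced with galactose for 36–48 hours. FACS gates were set low and high (top ~1%) using anti-HA fluorescence for expression and streptavidin fluorescence for binding of the Sf9 membrane reagent. Each polyreactivity label is drawn from the gate of origin.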
row,Sequence,polyreactivity (PSR sort gate)
1,QVQLVESGGGLVQAGGSLRLSCAASGRIFTGNAMGWYRQAPGKERELVASITYSDGSTYYADSVKGRFTISRDNAKNTVYFQMNSLKPEDTAVYYCAADILWGQGTQVTVSS,low polyreactivity
2,QVQLVESGGGLVQAGGSLRLSCAASGYTFGYYAMGWYRQAPGKERELVAAISYSGGTTYYADSVKGRFTISRDNAKNTVYLQMNSLKPEDTAVYYCNKRYWVRTGKVSSYDYWGQGTQVTVSS,high polyreactivity
3,QVQLEESGGGLVQAGGSLRLSCAASGSIFDSYARGWNSQAPVQERELVAAISRSGGRTYYADSVKGRFTISRDNAKNTVYLQMNSLKPEDTAVYYCNVVLGWWAPYFYTSGDYWGQGTQVTVSS,high polyreactivity
4,QVQLVESGVGLVQAGGSLRLSCAASGRIFAGYAMGWYRQAPGKERELVATISSGGSTYYADSVKGRFTISRDNAKNTVYLQMNSLKPEDTAVYYCAAEYGTRQYSSYYKLFNYWGQGTQVTVSS,low polyreactivity
5,QVQLVESGGGLVQAGGSLRISCAASGSTFRRYPIGWYRQAPGKEREFVAVITSSGVITYYADSVKGRFTISRDNAKNTVYLQMNSLKPEDTAVYYCATDARSMDYWGQGTQVTVSS,low polyreactivity
6,QVQLVESGGGLVQAGGSLRLSCAASGSTFESNFMGWYRQAPGKEWELVAAITWTGGSTYYADSVKGRFTISRDNAKNNVYLQMNSLKPVDTAVYYCATYDPGPLLGSDYWGHGTQVTVSS,low polyreactivity
7,QVQLVESGGGLVQAGGSLRLSCAASGLTLQPYAMGWSRQAPRNERELVAAITSGGSTYYADSVKGRFTISRDNAKNTVYLQMNSLKPEDTAVYYCAATVSYDFGYVAVSYDYWGQGTQVTVSS,low polyreactivity
8,QVQLVESGGGLVQAGGSLRLSCAASGLIFVRYAMGWYRQAPGKERELVATITWSGGTTYADSVKGRFTISRDNAKNTVYLQMNSLKPEDTAVYYCAVEWPAWTDSDYPVGGHAFGYWGQGTQVTVSS,low polyreactivity
9,QVQLVESGGGLVLAGGSLRLSCAASGLTFEYNAMGWYRQAPGKEGELVASISSGGGTNYADSVKGRFTISRDNAKHTVYLQMNSLKPEDTAVYYCATDNYDWSSWAFRGYWYDYWGQGTQVTVSS,low polyreactivity
10,QVQLVESGGGIYKAGGSLRLSCAASGSIIKINTLGRYRQAPRKERELVAAISTRGGSTYYADSVKGRFTISRDNSKNTVYLQMNSLKPDDTAVYFCAARQFYKYYYWGQGTQVTVSS,high polyreactivity
11,QVQLVESGGGLVQAGGSLRLSCAASGSIFPWNAMGWYRQAPGKERELVAAISRGGSTNYADSVKGRFTISRDNAKNTVYLQMNSLKPEDTAVYYCAVYYYSYHWGRGYDYWGQGTQVTVSS,high polyreactivity
12,QVQLVESGGGFVQAGGSLRLSCAAYGSISVGYTMGWYIQAPGKEREFVAVITGTGGRTRYADSVKGRFTISRDNAKNTVYLQMNSLKPEDTAVYYCAAKIRWRGALYDYWGQGTQVTVSS,high polyreactivity
13,QVQLVESGGGLVQAGGSLRLSCAASGFIFRGNAMGWYRQATGKERELVAGIRSLGGTTSYADSVKVRFTISRDNAKNTVYLQMNSLKPDDSGVYYCAAGYGADFDYWGQGTQVTVSS,low polyreactivity
14,QVQLVESGGGLVQAGGSLRLRCAASGRIFRPYTMGWYRQAPGKERELVAAITSGSSTNYADSVKGRFTISRDNAKNTVYLQMNSLKPEDTAVYYCAVKVRIFASYYPFYYWGQGTQVTVSS,high polyreactivity
15,QVQLVESGGGLVQAGGSLRLSCAASGLTFYQYAMGWYRQAPGKERELVAGISSGGSTKYADSVKGRFTISRDNAKNTVYLQMNSLKPEDTAVYYCAARFCAFRKGYYYWGQGTQVTVSS,high polyreactivity
16,QVQLVESGGGLVQAGGSLRLSCAASGFTFTRYAMGWYRQAPGKERELVAAISRRGGSTYYADSVKGRFTISRDNAKNTVYLQMNSLKPEDTAVYYCAKDAGSRTVREFGYWGQGTQVTVSS,high polyreactivity
17,QVQLVESGGGLVQAGGSLRLSCAASGRTFGLYAMGWYRQAPGKERELVAAISWGGGRTYYADSVKGRFTISRDNAKNTVYLQMNSLKPEDTAVYYCNAVYSPRYYVGGYDYWGQGTQVTVSS,high polyreactivity
18,QVQLEESGGGLVQAGGSLRLSCAASGSTFESYAMGWYRQAPGKERELVATITRRSTRTYYADSVKGRFTISRDNAKNTVYLQMNSLKPEDTAVYYCAARVYTVRAIGMGYWGQGTQVTVSS,high polyreactivity
19,QVQLVESGGGLVQAGGSLRLSCAASGSTFAYYAMGWYRQAPGKERELVAAISRTGGSTYYADSVKGRFTISRDNAKNTVYLQMNSLKPEDTAVYYCNARAPVGTFDYDYWGQGTQVTVSS,low polyreactivity
20,QDQLVESGGGLVQAGGSLRLSCAASGSTFRRYTMGWYRQAPGKERELVAVITKSGGSTYYADSVKGRFTISRDNAKNTVYLQMNRLKPEDTAVYYCAAGVAWRFYSWLGHFNGFDYWGQGTQVTVSS,high polyreactivity
21,QVQLVESGGGLVQAGGSLRLSCAASGFIFPAYVMGWYRQAPGKERELVAAISRRGGSTYYADSVKGRFTISRDNAKNTVYLQMNRLKPEDTSVYYCAAVFKAGSAYDYWGQGTQVTVSS,high polyreactivity
22,QVQLVESGGGLDQAGGSLRLSCAASGRIFVIIAMGWYRQAPGKERELVAAISWTGDTTYYADSVKGRFTISRDNAKNTVYLQMNSLKPEDTAVYYCAAEGYYIQSRTYSSDRYDYWGQGTQVTVSS,low polyreactivity

row,Sequence,polyreactivity (PSR sort gate)
1,QVQLVESGGGLVQAGGSLRLSCAASGFIFPGYTMGWYRQAPGKERELVAAISRGSSTYYADSVKRRFTISRDNAKNSVYLQMNSLKPEDTAVYYCAADYSYIYGFDYWGQGTQVTVSS,low polyreactivity
2,QVQLVESAGGLVQAGGSLRLSCDASGRILKYYDIGWYRQAPGKEWELVAAISVSGTSTYYADSVKGRFTISRDNAKNTVYLQMNSLKPEDTAVYYCATATGRYSFDYWGQGTQVTVSS,low polyreactivity
3,QVQLHESGRGLVQAGGSLRLSCAASGTISYAGQMGWYRQAPGKEREFVAAIGVGSNTNYADIVKGRYTIIRYNAKNSVYLQIISLKPEDTAVYYCAVGCYAPLGRPFWGQGTQVTVSS,low polyreactivity
4,QVQLVESGGGLVQAGGSLRLSCAASGSTFLNYAMGWYRQAPGKERELVAAISGRGGRTYYADSVKGRFTISRDNAKNTVYLQMNSLKPEDTAVYYCARRVRFPGGTFYYWGQGTQVTVSS,high polyreactivity
5,QVQLVESGGVLVQAGCSLRLSCAASGSTFYYNAMGWYRQAPRKERELVARISRSGGSTYADSVKGRFTISRDNAKNTVYLQMNSLKPEDTAVYYCYADAYGTPEFTSYAVRYDYWGQGTQVTVSS,low polyreactivity
6,QVQLVESGGGVVQAGGSLRLSCAASGSTFYPNAMGWYRQAPGKERELVAAISRGTRTKYADSVKGRFTISRDNAKNTVYLQMNSLKPEDTAVYYCAADTGTGLDWGQGTQVTVSS,high polyreactivity
7,QVQLEDSGGGLVQAGGSLRLSCAASGSTFDNYAMGWYRQAPGKERELVAVITQSGGITFYADSVKGRFTISRDNAKNTVYLQMNSVKPEDTAVYYCNVELDRSWYYYWGQGTQVTVSS,low polyreactivity
8,QVQLVESGGGLVQAGGSLRLSCAASGITFDEYAMGWYRQAPGKERELVASISAGSTYYADSVKGRFTISRDNAKNTVYLQMNSLKPEDTAVYYCAVVVDYDAYRYWGYDYWGQGTQVTVSS,high polyreactivity
9,QVHLVESGGGLVQAGGSLRLSCAASGRTYARYTMAWYRQAPGKEREMVASITRGGSTYFADSVKGRFTISRDNAKNTVYLQMNSLKPGDTAVYYCAARFPQHNYWAMDYWGLGTQVTVSS,high polyreactivity
10,QVQHVDSAGGIVQAGGILRLSCAASGPTFGKYAMGWYRQQHGKERELVATITRTARTNYADSVKGRFTSSRDNAKNTVYLQMNSRKPEDTAVYYCDAPWRYTFPPQVYGQSYGYWGQGTQVTVSS,high polyreactivity
11,QVHLVESVGGLVQAGGSLRLSSAASGSTFGYYAMGWYRQAPGKERELVAAINARGGSTYYADSVKGRFTISRDNAKNTVYLQMNSLKPEDTAVYYCAAVHIYSYGIYDYWGQGTQVTVSS,high polyreactivity
12,QVQLVESGGGLVQAGGRLRLSCAASGIIFSYYAMGWYRQAPGKERELVAAISWGGGSTYYADSVKGRFTISRDYAKNTVYLQMNSLKPEDTAVYYCAADYFDFFTGYEMGYWGQGTKVTVSS,high polyreactivity
13,QVQLVESGGGLVQAGGSLRLSCAASGSIFYGYAMGWYRQAPGKERELVAAINWSGGGTYYADSVKGRFTISRDNAKNTVYLQMNSLKPEDTAVYYCAAGHVVRRPYLIYDYWGQGTQVTVSS,high polyreactivity
14,QVQLVESGGGLVQAGGSLRLSCAASGSTFYVNTMGWYRQAPGKERELVAAITDSGVGTYADSVKGRFTISRDNAKNTVYLQMNSLKPEDTAVYYCAADGVTRDYDYWGQGTQVTVSS,low polyreactivity
15,QVQLVESGGGLVQAGGSLRLSCAASGSIFRGYAMGWYRQAPGKERELVAAITSSGARTFYADSVKGRFTISRDNAKNTVYFLMKSLRPEDTAVYYCDAVSANQDFDSWGQGTQVSVSS,high polyreactivity
16,QVQLVESGGGLVQAGGSLRLSCAASGLIFVWYAMGWYRQAPGKERELVAAISWRGGTTYYADSVKGRFTISRDNAKNTVYLQMNSLKPEDTAVYYCNAVGSQVDYLRYVWYDMDYWGQGTQVTVSS,low polyreactivity
17,QVQLVESGGGLVQAGGSLRLSCAASGRTFGVYAMGWYRQAPGKESELVAAISRLAGNTYYADSVKGRFTISRDNAKNTVYLQMNSLKPEDTAVYYCAADFSRQYGYWGQGTQVTVSS,high polyreactivity
18,QVQLVESGGGLVQAGGSLRLSCAASGRIFFSYDMGWYTQAPGKERELVAAIDYIAGNTYYADSVKGRFTISRDNAKNTVYLQMNSLKPEDTAVYYCAADVLDWYDLLRDDYWGQGTQVTVSS,low polyreactivity
19,QVQLVESGGGLVQAGGSLRLSCAASGRIFLRNAMGWYRQAPGKERELVAAISSSGGRTYYADSVKGRFTISRDNAKNTVYLQMNSLKPEDTAVYYCNARWHGSFDYWGQGTQVTVSS,low polyreactivity
20,QVQLVESGGGLVQAGGSLRLSCAASGNTFYSNAMGWYRQAPGKERDLVAAISASGTTTYYADSVKGRFTISRDNAKNTVYLQMNSLKPEDTAVYYCAAVAPTRATRREDSWGQGTQVTVSS,high polyreactivity
21,QVQLVESGGGLVQAGGSLRLSSAASGRIFNIYAMGWYRQAPGKERELVARITSGGRTNYADSVKGRFTISRDNAKNTVYLQRNSLKPEDTAVYYCAARTYGQRGDYWGQGTQVTVSS,high polyreactivity
